# Source: patent US20240043566A1 (SUZHOU TRANSCENTA THERAPEUTICS, published 2024)
# Substitutions are numbered along the chain they refer to.
# B1: 4B6 scFv variant L-CDR1-1 (scFv)
# scFv: DIQMTQSPSSLSASVGDRVTITCKASQNVGAIVAWYQQKPGKAPKLLIYSASNRYTGVPSRFSGSGSGTDFTLTISSLQPEDIATYYCQQYSNYPTFGQGTKLEIKGGGGSGGGGSGGGGSQVQLVQSGAEVKKPGASVKVSCKASGYVFTDYYMNWVRQAPGQSLEWMGDINPNNAGTSYNHKFKGRVTVTVDKSISTAYMELSRLRSDDTAVYYCVKWGDGPFAYWGQGTLVTVSS
# notes: also called 4B6-L-CDR1-1
# B2: 4B6 scFv variant L-CDR1-2 (scFv)
# scFv: B1 scFv with G30P, I32A
# notes: also called 4B6-L-CDR1-2
# B3: 4B6 scFv variant L-CDR1-3 (scFv)
# scFv: B1 scFv with G30K, A31G, I32A
# notes: also called 4B6-L-CDR1-3
# Target: T1, human PD-L1-Fc (Sino Biological, 70110-D02H) (human, UniProt Q9NZQ7 19-239)
# T1 construct: also called hPD-L1-Fc; not shown: Fc part
# Experiment: BLI, PD-L1-Fc loaded, scFv in solution
# T1 sequence (Q9NZQ7 19-239 limits assumed, stated change not applied): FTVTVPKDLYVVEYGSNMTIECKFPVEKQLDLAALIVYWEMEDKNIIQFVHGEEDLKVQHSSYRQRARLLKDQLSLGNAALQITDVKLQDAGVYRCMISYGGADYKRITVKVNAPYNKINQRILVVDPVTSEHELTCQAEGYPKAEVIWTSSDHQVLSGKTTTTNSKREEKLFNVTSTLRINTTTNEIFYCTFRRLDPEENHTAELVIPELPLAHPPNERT
row,Binder,Fold increase (over L-CDR1-WT)
1,B1,4.08 fold
2,B2,4.96 fold
3,B3,10.1 fold
